This note sets out measurements from the supplement of paper PMC7877785.

± gives the uncertainty stated by the source.

A short description of the data set: self-splicing fitness, log relative to wild type (ln ratio); higher = more splicing; Tetrahymena group I intron in knt gene, E. coli kanamycin selection, DiMSum; sequences stand for … in CUCUCU…GGAGGGAAAAGUUAUCAGGCAUGCACCUGGUAGCUAGUCUUUAAACCAAUAGAUUGCAUCGGUUUAAAAGGCAAGACCGUCAAAUUGCGGGAAAGGGGUCAACAGCCGUUCAGUACCAAGUCUCAGGGGAAACUUUGAGAUGGCCUUGCAAAGGGUAUGGUAAUAAGCUGACGGACAUGGUCCUAACCACGCAGCCAAGUCCUAAGUCAACAGAUCUUCUGUUGAUAUGGAUGCAGUUCACAGACUAAAUGUCGGUCGGGGAAGAUGUAUUCUUCUCAUAAGAUAUAGUCGGACCUCUCCUUAAUGGGAGCUAGCGGAUGAAGUGAUGCAACACUGGAGCCGCUGGGAACUAAUUUGUAUGCGAAAGUAUAUUGAUUAGUUUUGGAGUACUCGUGGUCG
The essentials: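 Six replicate transformations of E. coli BL21(DE3) with a pET-22b(+) library were grown overnight at 37°C or 30°C. The library randomised all eight P1ex-region intron nucleotides, the intron lying in the knt kanamycin-resistance gene, and plates were LB agar with or without 25 μg/mL kanamycin plus 100 μg/mL carbenicillin, 50 μM IPTG and 0.2% rhamnose. Pooled colonies were amplicon-sequenced on an Illumina HiSeq 2500, and fitness is the DiMSum error-weighted combination of wild-type-normalised replicate fold changes, kanamycin versus none.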

Consider GUGGAGCAAUAUUACGACAA, for which the “self-splicing fitness (ln)” value runs as follows: (30 °C) -1.83 ± 0.24; (37 °C) -1.38 ± 0.25.

In the case of CGUUAGCAAUAUUACGUAGA, the “self-splicing fitness (ln)” value was -2.87 ± 0.18 (30 °C) and -1.9 ± 0.22 (37 °C).

As for CAUUAGCAAUAUUACGAGGG, the “self-splicing fitness (ln)” value (30 °C) is -3.1 ± 0.18 and the “self-splicing fitness (ln)” value (37 °C) was -2 ± 0.21.

With GGGAAGCAAUAUUACGGAAC, the “self-splicing fitness (ln)” value reads like this: (30 °C) -2.09 ± 0.2; (37 °C) -2.13 ± 0.27.

Turning to CCUCAGCAAUAUUACGUCUA, the “self-splicing fitness (ln)” value is -3.41 ± 0.26 (30 °C) and -2.46 ± 0.28 (37 °C).

AACGAGCAAUAUUACGAUAG: the “self-splicing fitness (ln)” value was -3.04 ± 0.22 (30 °C) and -2.49 ± 0.22 (37 °C).

As for CGAGAGCAAUAUUACGGAGA, the “self-splicing fitness (ln)” value (30 °C) is -2.61 ± 0.26.

Consider UACUAGCAAUAUUACGACUU, for which the “self-splicing fitness (ln)” value reads like this: (30 °C) -1.27 ± 0.08; (37 °C) -0.271 ± 0.11.

With CCGAAGCAAUAUUACGGUGC, the “self-splicing fitness (ln)” value runs as follows: (30 °C) -3.26 ± 0.3; (37 °C) -2.26 ± 0.39.

As for CUUGAGCAAUAUUACGGUAC, the “self-splicing fitness (ln)” value is -2.24 ± 0.2 (30 °C) and -2.16 ± 0.42 (37 °C).

In the case of CAACAGCAAUAUUACGCGGC, the “self-splicing fitness (ln)” value is, setting by setting: (30 °C) -3.03 ± 0.21; (37 °C) -2.09 ± 0.23.

Regarding AACUAGCAAUAUUACGGGAA, the “self-splicing fitness (ln)” value is -1.5 ± 0.074 (30 °C) and -1.13 ± 0.084 (37 °C).

On to CUAGAGCAAUAUUACGUUGG, for which the “self-splicing fitness (ln)” value runs as follows: (30 °C) -1.71 ± 0.11; (37 °C) -0.638 ± 0.13.

As for AGCGAGCAAUAUUACGGGGA, the “self-splicing fitness (ln)” value runs as follows: (30 °C) -2.64 ± 0.35; (37 °C) -1.22 ± 0.22.

As to UUUCAGCAAUAUUACGGUCG, the “self-splicing fitness (ln)” value is -0.269 ± 0.074 (30 °C) and 0.418 ± 0.11 (37 °C).

Consider ACAGAGCAAUAUUACGGUGC, for which the “self-splicing fitness (ln)” value by setting is: (30 °C) -3.86 ± 0.44; (37 °C) -2.09 ± 0.31.

In the case of AGGGAGCAAUAUUACGUAAA, the “self-splicing fitness (ln)” value runs as follows: (30 °C) -3.55 ± 0.31; (37 °C) -2.73 ± 0.44.

As to AGGGAGCAAUAUUACGACCU, the “self-splicing fitness (ln)” value by setting is: (30 °C) -4.11 ± 0.33; (37 °C) -1.67 ± 0.25.

For AAACAGCAAUAUUACGUGUG, the “self-splicing fitness (ln)” value is, setting by setting: (30 °C) -2.38 ± 0.057; (37 °C) -1.38 ± 0.07.

Consider CAUAAGCAAUAUUACGGGGU, for which the “self-splicing fitness (ln)” value was -4.17 ± 0.19 (30 °C) and -2.46 ± 0.15 (37 °C).

As to GCAGAGCAAUAUUACGAUCC, the “self-splicing fitness (ln)” value is, setting by setting: (30 °C) -2.13 ± 0.3; (37 °C) -0.288 ± 0.46.

As for UGCCAGCAAUAUUACGCGCG, the “self-splicing fitness (ln)” value runs as follows: (30 °C) -0.853 ± 0.083; (37 °C) -0.528 ± 0.1.

As for GGACAGCAAUAUUACGAUCU, the “self-splicing fitness (ln)” value (30 °C) was -2.62 ± 0.18 and the “self-splicing fitness (ln)” value (37 °C) is -1.8 ± 0.2.

Take CCUUAGCAAUAUUACGGAAA: the “self-splicing fitness (ln)” value (30 °C) is -3.07 ± 0.24.

In the case of GUUUAGCAAUAUUACGGCCG, the “self-splicing fitness (ln)” value runs as follows: (30 °C) -2.4 ± 0.18; (37 °C) -0.926 ± 0.21.

In the case of GGCUAGCAAUAUUACGAAGG, the “self-splicing fitness (ln)” value (37 °C) was -0.668 ± 0.29.

With AUGGAGCAAUAUUACGUUUG, the “self-splicing fitness (ln)” value is -3.38 ± 0.29 (30 °C) and -2.58 ± 0.36 (37 °C).

In the case of CGUAAGCAAUAUUACGUGGG, the “self-splicing fitness (ln)” value reads like this: (30 °C) -3.43 ± 0.16; (37 °C) -2.67 ± 0.15.

Consider CGUAAGCAAUAUUACGGACU, for which the “self-splicing fitness (ln)” value reads like this: (30 °C) -0.0269 ± 0.14; (37 °C) -0.0508 ± 0.14.

As for GGACAGCAAUAUUACGCUUC, where the note is “30 °C”, the “self-splicing fitness (ln)” value is -1.74 ± 0.19.

Take UUACAGCAAUAUUACGUCUG: the “self-splicing fitness (ln)” value was -1.59 ± 0.13 (30 °C) and -1.07 ± 0.12 (37 °C).

Take CCAGAGCAAUAUUACGGAAC: the “self-splicing fitness (ln)” value runs as follows: (30 °C) -2.32 ± 0.2; (37 °C) -3.08 ± 0.36.

As for CGCAAGCAAUAUUACGUGAG, the “self-splicing fitness (ln)” value is -2.69 ± 0.13 (30 °C) and -2.15 ± 0.13 (37 °C).

On to GUAGAGCAAUAUUACGGUUU, for which the “self-splicing fitness (ln)” value runs as follows: (30 °C) -1.75 ± 0.11; (37 °C) -0.8 ± 0.13.

Turning to GCGCAGCAAUAUUACGCCCU, the “self-splicing fitness (ln)” value (37 °C) came to 0.00379 ± 0.44.

For UAAAAGCAAUAUUACGACUC, the “self-splicing fitness (ln)” value was -1.22 ± 0.12 (30 °C) and -0.668 ± 0.18 (37 °C).

With GAUCAGCAAUAUUACGGGUG, the “self-splicing fitness (ln)” value reads like this: (30 °C) -0.356 ± 0.081; (37 °C) -0.245 ± 0.094.

For the sequence AUAAAGCAAUAUUACGAUGU, the “self-splicing fitness (ln)” value (30 °C) was -0.252 ± 0.072 and the “self-splicing fitness (ln)” value (37 °C) worked out at 0.28 ± 0.099.

As for UUUCAGCAAUAUUACGAUAU, the “self-splicing fitness (ln)” value runs as follows: (30 °C) -1.88 ± 0.15; (37 °C) -0.0425 ± 0.12.
